T1: GST-MP (MONOPTEROS / AUXIN RESPONSE FACTOR5) (Arabidopsis thaliana, UniProt P93024 1-902)
T1 sequence (looked up): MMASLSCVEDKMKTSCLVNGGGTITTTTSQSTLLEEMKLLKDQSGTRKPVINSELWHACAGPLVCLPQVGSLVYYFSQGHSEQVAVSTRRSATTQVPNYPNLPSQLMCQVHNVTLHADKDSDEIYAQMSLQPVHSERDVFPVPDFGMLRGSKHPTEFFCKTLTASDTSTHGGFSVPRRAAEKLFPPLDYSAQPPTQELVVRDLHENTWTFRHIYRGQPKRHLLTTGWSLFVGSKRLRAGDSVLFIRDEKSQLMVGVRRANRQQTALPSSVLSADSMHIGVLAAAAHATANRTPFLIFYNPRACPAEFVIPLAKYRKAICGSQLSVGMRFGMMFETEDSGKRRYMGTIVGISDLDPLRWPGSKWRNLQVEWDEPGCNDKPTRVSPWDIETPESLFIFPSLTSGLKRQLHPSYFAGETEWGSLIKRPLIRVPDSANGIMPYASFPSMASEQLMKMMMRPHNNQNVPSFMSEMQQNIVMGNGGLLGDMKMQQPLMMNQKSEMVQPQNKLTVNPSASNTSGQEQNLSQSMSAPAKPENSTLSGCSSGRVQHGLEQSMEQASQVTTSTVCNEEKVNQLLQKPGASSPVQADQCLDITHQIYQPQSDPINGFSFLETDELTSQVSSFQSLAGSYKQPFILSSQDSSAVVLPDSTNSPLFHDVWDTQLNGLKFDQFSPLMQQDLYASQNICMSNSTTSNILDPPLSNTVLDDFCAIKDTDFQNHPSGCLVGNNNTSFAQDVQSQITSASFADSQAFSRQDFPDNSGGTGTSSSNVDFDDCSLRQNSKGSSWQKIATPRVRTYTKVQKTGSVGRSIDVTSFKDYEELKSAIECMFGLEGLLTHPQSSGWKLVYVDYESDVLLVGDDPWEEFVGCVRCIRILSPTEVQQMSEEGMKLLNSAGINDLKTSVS

B1: 6xHis-MBP-DRNL (DORNROSCHEN-LIKE) (natural protein)
chain: not shown
B2: 6xHis-MBP-DRN (residues 1 to 200, protein-protein interaction domain) (domain or fragment)
chain: not shown

Biological target: T1, GST-MP (MONOPTEROS / AUXIN RESPONSE …)
Test: pull-down

Binder | binding result
B1 | binds
B2 | binds

Reference: paper PMC10334806 (Proceedings of the National Academy of Sciences of the …, 2023)
